Measured values taken from patent US6965850B2, “Methods for modulating nuclear receptor coactivator binding” (The Regents of the University of California, priority 1998, dated 2005).
One block for each molecule: values may come before it. Ends that are not written are not given here.

What was measured:
hTRβ LBD [1] = target: T1, hTRβ LBD (Homo sapiens, UniProt P10828); assay: Peptide competition of GRIP1 (563-767) interaction with hTRβ LBD; format: binding; set-up: made in house; host or cells: TR LBD: in vitro translation (reticulocyte lysate); GST-GRIP1 fragment: E. coli HB101
T1 sequence (P10828 202-461): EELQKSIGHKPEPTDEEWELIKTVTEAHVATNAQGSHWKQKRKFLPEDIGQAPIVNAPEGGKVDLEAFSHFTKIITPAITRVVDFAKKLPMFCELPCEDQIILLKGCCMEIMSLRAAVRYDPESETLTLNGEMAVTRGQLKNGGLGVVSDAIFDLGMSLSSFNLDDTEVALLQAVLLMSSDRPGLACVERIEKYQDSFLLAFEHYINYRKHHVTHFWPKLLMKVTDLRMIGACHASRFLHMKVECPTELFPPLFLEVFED
Procedure: (§1) For in vitro binding studies GR, TR and their derivatives were translated in the presence of [^35S]methionine using the TNT Coupled Reticulocyte System (Promega). Separate translations were performed in the presence and absence of 10 μM dexamethasone or 1 μM RU486 for GR and 10 μM triiodothyronine for TR. Expression was quantified by phosphoimager analysis (BAS2000, Fuji). For all binding assays 50 μl of a 20% bead suspension containing either 1.6 or 4.0 μM bound purified GST GRIP1 fragment (either 568-767 or 563-1121) was incubated with 0.2 μl or 1.4 μl in vitro transcribed and translated TR or GR, respectively. Binding was performed in the binding buffer described above supplemented with 20 μg/ml BSA and appropriate hormone. The chosen GST GRIP1 fragment concentrations were sufficient to bind either 70 or 100% of the TR derivatives. The reaction was incubated at 4° C. under rotation for 2 hours. In case of competition experiments, the appropriate concentration of peptides were added to the reaction before addition of receptors. However, no differences in the results were noted by adding the peptides after half of the incubation of the GST GRIP1 fragment with nuclear receptors. […] Beads were washed five times with 200 μl binding buffer+BSA at 4° C. before elution of the bound proteins in 20 μl SDS loading buffer. Eluted beads and input labeled protein were subjected to SDS-PAGE. The fraction of bound nuclear receptors was determined by phosphoimager analysis.

hERα-LBD = target: T2, hERα-LBD (Homo sapiens, UniProt P03372); assay: Electrophoretic mobility shift assay with purified hERα-LBD; format: binding; conditions: 2-fold or 10-fold molar excess of peptide, 6% native PAGE
T2 construct: made in house; host or cells: E. coli BL21(DE3)pLysS
T2 sequence (P03372 297-554): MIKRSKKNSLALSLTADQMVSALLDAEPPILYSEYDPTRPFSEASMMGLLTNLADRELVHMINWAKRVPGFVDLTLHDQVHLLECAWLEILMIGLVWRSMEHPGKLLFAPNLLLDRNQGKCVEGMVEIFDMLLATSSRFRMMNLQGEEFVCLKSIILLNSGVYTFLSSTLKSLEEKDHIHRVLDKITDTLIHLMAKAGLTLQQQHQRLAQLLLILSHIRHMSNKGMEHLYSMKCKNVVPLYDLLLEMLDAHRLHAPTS
Procedure: An electrophoretic mobility shift assay was used to directly assess the ability of the NR-box 2 peptide to bind the purified ERα LBD in the presence of either DES or OHT. Eight microgram samples of purified hERα-LBD bound to either DES or OHT were incubated in the absence of the peptide, i.e., buffer alone, or in the presence of either a 2-fold or 10-fold molar excess of the GRIP1 NR-box 2 peptide. The binding reactions were performed on ice for 45 minutes in 10 μl of buffer containing 20 mM Tris, pH 8.1, 1 mM DTT, and 200 mM NaCl and then subjected to 6% native PAGE. Gels were stained with GELCODE Blue Stain reagent (Pierce).

GR = assay: GST-GRIP1 fragment pull-down of GR; format: binding
Procedure: as §1

hTRβ LBD [2] = target: T1, hTRβ LBD; assay: GST-GRIP1 fragment pull-down of TR; format: binding; set-up: made in house; host or cells: in vitro translation (TNT Coupled Reticulocyte System, Promega)
Procedure: For in vitro binding studies GR, TR and their derivatives were translated in the presence of [^35S]methionine using the TNT Coupled Reticulocyte System (Promega). Separate translations were performed in the presence and absence of 10 μM dexamethasone or 1 μM RU486 for GR and 10 μM triiodothyronine for TR. Expression was quantified by phosphoimager analysis (BAS2000, Fuji). For all binding assays 50 μl of a 20% bead suspension containing either 1.6 or 4.0 μM bound purified GST GRIP1 fragment (either 568-767 or 563-1121) was incubated with 0.2 μl or 1.4 μl in vitro transcribed and translated TR or GR, respectively. Binding was performed in the binding buffer described above supplemented with 20 μg/ml BSA and appropriate hormone. The chosen GST GRIP1 fragment concentrations were sufficient to bind either 70 or 100% of the TR derivatives. The reaction was incubated at 4° C. under rotation for 2 hours. In case of competition experiments, the appropriate concentration of peptides were added to the reaction before addition of receptors. However, no differences in the results were noted by adding the peptides after half of the incubation of the GST GRIP1 fragment with nuclear receptors. […] The fraction of bound nuclear receptors was determined by phosphoimager analysis.

MDM2 = MDM2 (Homo sapiens, UniProt Q00987); assay: GRIP1 interaction with MDM2; format: binding; conditions: data not shown
TAFII31 = target: T3, TAFII31 (Homo sapiens, UniProt Q16594); assay: GRIP1 interaction with TAFII31; format: binding; conditions: data not shown
T3 sequence (Q16594 1-264): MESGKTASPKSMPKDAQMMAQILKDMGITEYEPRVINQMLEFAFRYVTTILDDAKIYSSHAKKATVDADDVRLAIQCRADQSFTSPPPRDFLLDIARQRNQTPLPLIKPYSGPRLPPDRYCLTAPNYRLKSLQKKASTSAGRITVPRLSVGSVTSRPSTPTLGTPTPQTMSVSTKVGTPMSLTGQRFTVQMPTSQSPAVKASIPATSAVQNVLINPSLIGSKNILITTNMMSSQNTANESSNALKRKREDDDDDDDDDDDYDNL

hERα V376R mutant = target: T4, hERα V376R mutant (Homo sapiens, UniProt P03372, V376R); assay: In vitro binding of [35S]-labeled hERα mutant to GST-GRIP1; conditions: percentage of WT hERα
T4 construct: expression vector encoding full-length hERα, pSG5-er HEGO (WT or mutants); made in house; host or cells: hERα: in vitro translation implied by the [35S] label; GST-GRIP1: E. coli HB101
T4 sequence (P03372 1-595 V376R): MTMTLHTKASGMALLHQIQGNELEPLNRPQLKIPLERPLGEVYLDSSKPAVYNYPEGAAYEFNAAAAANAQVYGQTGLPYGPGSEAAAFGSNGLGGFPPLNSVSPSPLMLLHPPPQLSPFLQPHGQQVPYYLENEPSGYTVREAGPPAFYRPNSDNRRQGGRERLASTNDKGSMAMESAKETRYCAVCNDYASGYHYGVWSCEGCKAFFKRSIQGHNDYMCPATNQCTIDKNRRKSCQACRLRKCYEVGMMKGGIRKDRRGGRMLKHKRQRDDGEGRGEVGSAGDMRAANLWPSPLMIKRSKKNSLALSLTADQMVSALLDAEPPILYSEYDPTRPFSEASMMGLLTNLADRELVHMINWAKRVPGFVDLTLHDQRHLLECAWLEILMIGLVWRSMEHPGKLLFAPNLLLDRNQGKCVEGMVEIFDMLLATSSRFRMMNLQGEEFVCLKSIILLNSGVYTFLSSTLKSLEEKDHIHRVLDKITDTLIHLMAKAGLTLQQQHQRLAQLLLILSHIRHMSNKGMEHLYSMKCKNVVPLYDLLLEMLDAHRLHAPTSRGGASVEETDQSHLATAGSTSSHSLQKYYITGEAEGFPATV
Procedure: Beads were washed 3 times with 1 ml of binding buffer and the bound proteins were separated using 10% SDS-PAGE and visualized by autoradiography. Binding was quantitated by phosphorimaging using ImageQuant (Molecular Dynamics).

Chain of MDM2 (Q00987 whole entry, species assumed): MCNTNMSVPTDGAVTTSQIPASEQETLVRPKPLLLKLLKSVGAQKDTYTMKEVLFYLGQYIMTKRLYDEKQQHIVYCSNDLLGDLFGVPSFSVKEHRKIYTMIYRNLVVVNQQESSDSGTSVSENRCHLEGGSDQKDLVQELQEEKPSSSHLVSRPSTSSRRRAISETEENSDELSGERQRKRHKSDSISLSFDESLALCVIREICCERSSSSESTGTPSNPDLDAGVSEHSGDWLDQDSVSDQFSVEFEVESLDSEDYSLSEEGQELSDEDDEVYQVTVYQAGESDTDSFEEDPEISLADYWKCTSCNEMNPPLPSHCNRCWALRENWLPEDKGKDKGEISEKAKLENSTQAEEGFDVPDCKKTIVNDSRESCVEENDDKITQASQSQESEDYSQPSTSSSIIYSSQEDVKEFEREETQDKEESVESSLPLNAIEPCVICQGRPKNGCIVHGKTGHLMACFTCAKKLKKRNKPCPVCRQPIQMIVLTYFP

- competition with TR LBD interaction with GRIP1 (563-767) (hTRβ LBD [1]): does not compete
Molecule: LLRYLL (listed as Homo sapiens) [minimal motif of NR-box 3]

- competition with TR LBD interaction with GRIP1 (563-767) (hTRβ LBD [1]): increased affinity
Molecule: TSLKEKHKILHRLLQDS

- binding of GR to GRIP1 fragment (GR): binds most strongly
- loss of TR binding (hTRβ LBD [2]; hydrophobic residues of the NR-box replaced with alanine): about 50%
Molecule: NR-box 3: GST-GRIP1 (563-767) with hydrophobic residues of NR-box 2 replaced with alanine; NR-box 3 functional (ENALLRYLLDKDD)

- competition with TR LBD interaction with GRIP1 (563-767) (hTRβ LBD [1]): binds like a NR-box 2 peptide
Molecule: TSLKEKHKLLRYLLQDSS

- competition with TR LBD interaction with GRIP1 (563-767) (hTRβ LBD [1]): increased affinity
Molecule: PKKKENALLRYLLDKDDTKD

Second part, the molecule before the results:

Molecule: ILHRLL (MUTAGEN (15)..(15) Ile --> Ala; listed as Homo sapiens) [peptide consisting of the NR-box 2]
- competition with TR LBD interaction with GRIP1 (563-767) (hTRβ LBD [1]): does not sufficiently compete

Molecule: 686-KHKILHRLLQDSS-698 (not fully specified; printed as 686-KHKILHRLLQDSS-698; listed as Homo sapiens) [GRIP1 NR-box 2 peptide]
- migration of DES-hERα-LBD complex in presence of peptide (hERα-LBD): retarded
- mobility of OHT-hERα-LBD complex on peptide addition (hERα-LBD): no effect

Molecule: KENALLRYLLDKDDTKD
- competition with TR LBD interaction with GRIP1 (563-767) (hTRβ LBD [1]): increased affinity

B1: GRIP1 (563-767): fragment of GRIP1 containing all three NR-boxes, used as GST-fusion (protein)
chain: QNSPVNMNPPPLSKMGSLDSKDCFGLYGEPSEGTTGQAEASCHPEEQKGPNDSSMPQAASGDRAEGHSRLHDSKGQTKLLQLLTTKSDQMEPSPLPSSLSDTNKDSTGSLPGPGSTHGTSLKEKHKILHRLLQDSSSPVDLAKLTAEATGKELSQESSSTAPGSEVTVKQEPASPKKKENALLRYLLDKDDTKDIGLPEITPKLEHHHHHH
modifications: left off: a dimerising Fc or GST
notes: fragment of GRIP1 containing all three NR-boxes, used as GST-fusion
- affinity of GR for GRIP1 (563-767) relative to a comparable amount of TR (GR): about one-fifth
- binding of GR to GRIP1 fragment (GR): found to bind
- binding of TR to GST-GRIP1 (563-767) fragment (hTRβ LBD [2]; NR-box hydrophobic residues replaced with alanine where mutant): strongly binds TR

B2: GRIP1 (563-1121): GRIP1 (563-767) extended to residue 1121, GST fragment (protein)
chain: QNSPVNMNPPPLSKMGSLDSKDCFGLYGEPSEGTTGQAEASCHPEEQKGPNDSSMPQAASGDRAEGHSRLHDSKGQTKLLQLLTTKSDQMEPSPLPSSLSDTNKDSTGSLPGPGSTHGTSLKEKHKILHRLLQDSSSPVDLAKLTAEATGKELSQESSSTAPGSEVTVKQEPASPKKKENALLRYLLDKDDTKDIGLPEITPKLERLDSKTDPASNTKLIAMKTVKEEVSFEPSDQPGSELDNLEEILDDLQNSQLPQLFPDTRPGAPTGSVDKQAIINDLMQLTADSSPVPPAGAQKAALRMSQSTFNNPRPGQLGRLLPNQNLPLDITLQSPTGAGPFPPIRNSSPYSVIPQPGMMGNQGMLGSQGNLGNNSTGMIGSSTSRPSMPSGEWAPQSPAVRVTCAATTGAMNRPVQGGMIRNPTASIPMRANSQPGQRQMLQSQVMNIGPSELEMNMGGPQYNQQQAPPNQTAPWPESILPIDQASFASQNRQPFGSSPDDLLCPHPAAESPSDEGALLDQLYLALRNFDGLEEIDRALGIPELVSQSQAVDAEQFSSQE
modifications: left off: a dimerising Fc or GST
notes: GRIP1 (563-767) extended to residue 1121, GST fragment
- increase of binding to GR on extension of GRIP1 (563-767) to residue 1121 (GR): about 3 fold
- increase of binding of GR to GRIP1 (563-1121) in the absence of ligand (GR; GR deletion mutant lacking N-terminal AF-1 versus full length GR, no ligand): about 10 fold

B3: GRIP1: mouse p160 coactivator protein (protein)
chain: QNSPVNMNPPPLSKMGSLDSKDCFGLYGEPSEGTTGQAEASCHPEEQKGPNDSSMPQAASGDRAEGHSRLHDSKGQTKLLQLLTTKSDQMEPSPLPSSLSDTNKDSTGSLPGPGSTHGTSLKEKHKILHRLLQDSSSPVDLAKLTAEATGKELSQESSSTAPGSEVTVKQEPASPKKKENALLRYLLDKDDTKDIGLPEITPKLE
- interaction with MDM2 (MDM2): no interaction was detected
- interaction with TAFII31 (TAFII31): no interaction was detected
- residual GRIP1 binding (hERα V376R mutant): 10%
